# Measured values taken from publication PMC7570111, “Iron-Sulfur Cluster Complex Assembly in the Mitochondria of Arabidopsis thaliana” (Plants, 2020).
# How the values were obtained:
# AtNFS1 alone = target: T1, AtNFS1 alone (Arabidopsis thaliana, UniProt O49543); assay: L-alanine production, ninhydrin colorimetric assay at […] nm; format: biochemical; conditions: no AtFH or AtISD11, 25 mM Tris-HCl pH 8, 100 mM NaCl, 10 uM PLP, 100 uM DTT, 37 °C, low activity
# T1 construct: gene NIFS1; mature form, pET32a with His6 tag and TEV site, codon-optimised, E. coli expression; about 48 kDa with His6
# T1 sequence (O49543 35-453): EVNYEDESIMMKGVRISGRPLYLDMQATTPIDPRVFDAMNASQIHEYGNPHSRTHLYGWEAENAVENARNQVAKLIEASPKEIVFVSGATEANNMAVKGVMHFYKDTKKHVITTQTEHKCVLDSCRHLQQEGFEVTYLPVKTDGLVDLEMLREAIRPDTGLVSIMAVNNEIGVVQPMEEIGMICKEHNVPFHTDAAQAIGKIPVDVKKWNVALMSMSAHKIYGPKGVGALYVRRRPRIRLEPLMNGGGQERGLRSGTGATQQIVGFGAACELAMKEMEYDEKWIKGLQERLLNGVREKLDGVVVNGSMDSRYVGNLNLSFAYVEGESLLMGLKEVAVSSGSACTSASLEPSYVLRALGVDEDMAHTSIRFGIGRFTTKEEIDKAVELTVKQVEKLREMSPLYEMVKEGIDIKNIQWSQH
# [1] = target: AtNFS1-His6 (cysteine desulfurase AtNFS1 from Arabidopsis thaliana, mature form, His6-tagged) (Arabidopsis thaliana) (UniProt O49543)
# [2] = target: AtNFS1-His6 (cysteine desulfurase AtNFS1 from Arabidopsis thaliana, mature form, His6-tagged) (Arabidopsis thaliana) (UniProt O49543); remark: listed apart in the source
Molecule,"L-alanine production, ninhydrin colorimetric assay at 565 nm (AtNFS1 alone)","attenuation of the Fenton reaction (decrease in malondialdehyde produced from dRibose, Fe(II) and H2O2) with AtFH, AtNFS1 and AtISD11 together (30 uM each); AtFH alone about 40% [1]","cysteine desulfurase activity of AtNFS1 in the presence of AtFH and AtISD11 (1:1:1 molar ratio), Vmax [2]"
N[C@@H](CS)C(=O)O [L-cysteine],"in the presence of its substrates, AtNFS1 alone shows low cysteine desulfurase activity",,
"AtFH (frataxin from Arabidopsis thaliana, mature form, without His6 tag) (natural protein)",,80%,47.8 U/mg
